Earlier results in paper PMC4072394.

How the values were obtained:
[1] = tested on: Glu169; experiment: UV-vis; conditions: detergent-solubilised, unphotolysed (ground) state with protonated Schiff base
[2] = tested on: Asp299; experiment: UV-vis; conditions: detergent-solubilised, unphotolysed (ground) state with protonated Schiff base

In the case of “Channelrhodopsin-1 (CaChR1) (Chlamydomonas augustae)”, the pKa [1] is listed as “near 9” and the pKa [2] is listed as “near 5”.
